Measured values from PMC10728891.

What was measured:
human insulin (human) [1] = molecular target: human insulin (human) (UniProt P01308); assay: circular dichroism, dissociation kinetics after dilution; 600 μM insulin, 250 μM ZnCl2, 25 mM m-cresol, 25 mM tris pH 8 (R6 hexamer), diluted 150-fold into 25 mM tris pH 8.0; ellipticity at 222 nm over 120 s at 25 °C; monoexponential fit; hexamer to monomers
human insulin (human) [2] = molecular target: human insulin (human) (UniProt P01308); assay: AUC; sedimentation velocity, 300 μM insulin, […] m-cresol, […] ZnCl2, 25 mM tris buffer pH 8.0, interference optics

“human insulin (from UniProt P01308 25-54; P01308 90-110) (natural protein)” was tested. Which t1/2 of hexamer dissociation (human insulin (human) [1]) did it give?
The t1/2 of hexamer dissociation was 18.4 s.

And the stoichiometry N (human insulin (human) [2])?
The stoichiometry N was 6.
